Measured values reported in patent US20030163841A1 (YALE UNIVERSITY, published 2003).

Assays:
[1] = biological target: the molecule itself; test: chemical cross-linking (DSub or EGS) of in vitro translated protein, SDS-PAGE, fluorography
Procedure: Protein immunoblot analysis was performed exactly as described previously (McNellis et al., 1994a). pAR-COP1 , a FLAG-tagged COP1 that has an additional peptide […] at the N-terminus (Matsui et al., 1995), was in vitro transcribed and translated using TNT coupled reticulocyte lysate system (Promega) and radiolabelled with [³⁵S]methionine (Amersham). For chemical cross-linking, 2 μl of translation mix (with radiolabelled proteins) was diluted to 18 μl with a reaction buffer (100 mM potassium phosphate [pH 7.7]; 100 mM NaCl; 0.1 mM ZnSO₄; 10% glycerol; 0.1% NonidetP-40; 4 mM DTT) and cross-linked with 2 μl of freshly diluted Dsub or EGS in dimethyl sulfoxide. For a negative control, 2 μl of dimethyl sulfoxode was added to the reaction. After 20 min incubation at room temperature, the reaction was quenched by addition of 2 μl of 1 M glycine (for Dsub) or 200 mM lysine (for EGS) and 22 μl of 2× Laemmli SDS-PAGE buffer. Samples were boiled for 5 min, separated by 6% SDS-PAGE, and fluorographed after treatment with Amplify (Amersham).
To better understand the COP1 self-association, we performed a chemical cross-linking analysis of in-vitro translated COP1 protein in solution. A FLAG-COP1 epitope tagged protein was in-vitro translated and then cross-linked with either dimethylsuberimidate (DSub) or ethylene glycobis (succinimidylsuccinate) (EGS). […]

[2] = biological target: the molecule itself; test: gel filtration (Superdex-200) of seedling extracts, immunoblot of fractions
Procedure: For gel filtration chromatography, 8-day-old light- or dark grown seedlings were homogenized with 2× gel filtration buffer containing 50 mM Tris-HCl (pH 7.5), 440 mM NaCl, 2 mM MgCl₂, 2 μM ZnSO₄, 0.5 mM PMSF and centrifuged for 5 min at 4° C. Total soluble protein was fractionated through a 25 ml Superdex-200 FPLC column (Pharmacia) with 1× gel filtration buffer at a flow rate of […]. All procedures were carried out at 4° C. and, for dark samples, under dim green safe light. Consecutive fractions of 0.5 ml each were collected after the void volume (7.5 ml), concentrated, and subjected to 10% SDS-PAGE followed by a protein immunoblot analysis. The molecular weight standards for size estimation of the native COP1 protein were as follows: blue dextran (void); thyroglobulin (669 kDa); ferritin (440 kDa); catalase (232 kDa); aldolase (158 kDa); BSA (67 kDa); ovalbumin (43 kDa); and ribonuclease A (13.7 kDa) (Sigma).
To confirm the presence of COP1 dimers in vivo, a gel-filtration analysis was performed using protein extracts from light- or dark-grown Arabidopsis wild-type seedlings. […] However, the COP1 peak was very broad and contained a broad shoulder toward the larger molecular size fractions (FIG. 1B). Therefore it is possible that a portion of COP1 may present as homo-oligomers or in heterogeneous associations with other molecules in vivo. […]

[3] = biological target: the molecule itself; test: yeast two-hybrid, LacZ reporter
Source text: (C) Delimitation of Cop1 self-association domain utilizing the yeast two-hybrid system. For baits (Bait), Cop1 domain fragments were fused with the LexA DNA binding domain (LexA). For preys (Prey), the COP1 domain fragments were fused with the synthetic transcription activation domain (AD). Numbers and names at the left indicate a pairwise combination of bait and prey constructs in each row. The graph at the right indicates the relative LacZ reporter activity in yeast cells corresponding to combinations of bait and prey constructs presented in each row. For each pairwise combination, at least 8 individual transformants were used to measure the LacZ activity. Error bars represent standard deviation. Combination 1 (LexA: N282) and 2 (N282:AD) serve as negative controls.
pKS-RING and pKS-Coil are digested with EcoRI and XhoI, and rest of the COP1 domain cassettes in the pKSm vectors were digested with EcoRI. Fragments were then ligated into pEG202 or pJG4-5 to generate COP1 domains fused to the LexA DNA binding protein or the synthetic activation domain, respectively (Golemis et al., 1995). Generation of pEG-N282, pJG-N282, pJG-COP1, and pJG-ΔRING was described elsewhere (McNellis et al., 1996; Ang et al., 1998). To generate pJG-GUS-ΔRΔC, pRTL-GUS-ΔRΔC was cleaved with NcoI and XbaI and then ligated into NcoI/XbaI digested pKS-COP1. […]

B1: FLAG-COP1 epitope tagged protein (pAR-COP1), in vitro translated and [35S]methionine labelled (other, Arabidopsis)
chain: DDADTKDDDDKMEEISTDPVVPAVKPDPRTSSVGEGANRHENDDGGSGGSEIGAPDLDKDLLCPICMQIIKDAFLTACGHSFCYMCIITHLRNKSDCPCCSQHLTNNQLYPNFLLDKLLKKTSARHVSKTASPLDQFREALQRGCDVSIKEVDNLLTLLAERKRKMEQEEAERNMQILLDFLHCLRKQKVDELNEVQTDLQYIKEDINAVERHRIDLYRARDRYSVKLRMLGDDPSTRNAWPHEKNQIGFNSNSLSIRGGNFVGNYQNKKVEGKAQGSSHGLPKKDALSGSDSQSLNQSTVSMARKKRIHAQFNDLQECYLQKRRQLADQPNSKQENDKSVVRREGYSNGLADFQSVLTTFTRYSRLRVIAEIRHGDIFHSANIVSSIEFDRDDELFATAGVSRCIKVFDFSSVVNEPADMQCPIVEMSTRSKLSCLSWNKHEKNHIASSDYEGIVTVWDVTTRQSLMEYEEHEKRAWSVDFSRTEPSMLVSGSDDCKVKVWCTRQEASVINIDMKANICCVKYNPGSSNYIAVGSADHHIHYYDLRNISQPLHVFSGHKKAVSYVKFLSNNELASASTDSTLRLWDVKDNLPVRTFRGHTNEKNFVGLTVNSEYLACGSETNEVYVYHKEITRPVTSHRFGSPDMDDAEEEAGSYFISAVCWKSDSPTMLTANSQGTIKVLVLAA
notes: range 1-675; Monomer 78 kDa, cross-linked product about 160 kDa; A second, lower band may start at an internal methionine of COP1; also called FLAG-tagged COP1
B1: binds [1].

B2: endogenous Arabidopsis COP1 protein (extracts of wild-type seedlings) (other, UniProt P43254 1-675, looked up)
chain: MEEISTDPVVPAVKPDPRTSSVGEGANRHENDDGGSGGSEIGAPDLDKDLLCPICMQIIKDAFLTACGHSFCYMCIITHLRNKSDCPCCSQHLTNNQLYPNFLLDKLLKKTSARHVSKTASPLDQFREALQRGCDVSIKEVDNLLTLLAERKRKMEQEEAERNMQILLDFLHCLRKQKVDELNEVQTDLQYIKEDINAVERHRIDLYRARDRYSVKLRMLGDDPSTRNAWPHEKNQIGFNSNSLSIRGGNFVGNYQNKKVEGKAQGSSHGLPKKDALSGSDSQSLNQSTVSMARKKRIHAQFNDLQECYLQKRRQLADQPNSKQENDKSVVRREGYSNGLADFQSVLTTFTRYSRLRVIAEIRHGDIFHSANIVSSIEFDRDDELFATAGVSRCIKVFDFSSVVNEPADMQCPIVEMSTRSKLSCLSWNKHEKNHIASSDYEGIVTVWDVTTRQSLMEYEEHEKRAWSVDFSRTEPSMLVSGSDDCKVKVWCTRQEASVINIDMKANICCVKYNPGSSNYIAVGSADHHIHYYDLRNISQPLHVFSGHKKAVSYVKFLSNNELASASTDSTLRLWDVKDNLPVRTFRGHTNEKNFVGLTVNSEYLACGSETNEVYVYHKEITRPVTSHRFGSPDMDDAEEEAGSYFISAVCWKSDSPTMLTANSQGTIKVLVLAA
notes: range 1-675; Gel filtration peak at about 160 kDa is read as a dimer; The peak is broad, so oligomers, other partners and some monomer are not excluded; also called native COP1 protein
B2: binds [2].

B3: Coil domain of COP1 (pKS-Coil cassette) (other)
chain: MDKLLKKTSARHVSKTASPLDQFREALQRGCDVSIKEVDNLLTLLAERKRKMEQEEAERNMQILLDFLHCLRKQKVDELNEVQTDLQYIKEDINAVERHRIDLYRARD
notes: The cassette used in yeast starts at aa104 (L104M); Fused to LexA or AD in yeast; also called coiled-coil domain
B3: binds [3].
